From paper PMC5515580
Substitutions are numbered along the chain they refer to. Names may count otherwise.

B1: P-S88-ARPP-16 (natural protein)
chain: MEDKVTSPEKAEEAKLKARYPHLGQKPGGSDFLRKRLQKGQKYFDSGDYNMAKAKMKNKQLPTAAPDKTEVTGDHIPTPQDLPQRKPSLVASKLAG
modifications: phosphoserine at 88 (by PKA, to a maximal stoichiometry)
B2: 6xHis-S88D-ARPP-16 (natural protein)
chain: B1 chain with S88D

Target: MAST3-HA (human) (UniProt O60307)
Sequence (O60307 313-1021): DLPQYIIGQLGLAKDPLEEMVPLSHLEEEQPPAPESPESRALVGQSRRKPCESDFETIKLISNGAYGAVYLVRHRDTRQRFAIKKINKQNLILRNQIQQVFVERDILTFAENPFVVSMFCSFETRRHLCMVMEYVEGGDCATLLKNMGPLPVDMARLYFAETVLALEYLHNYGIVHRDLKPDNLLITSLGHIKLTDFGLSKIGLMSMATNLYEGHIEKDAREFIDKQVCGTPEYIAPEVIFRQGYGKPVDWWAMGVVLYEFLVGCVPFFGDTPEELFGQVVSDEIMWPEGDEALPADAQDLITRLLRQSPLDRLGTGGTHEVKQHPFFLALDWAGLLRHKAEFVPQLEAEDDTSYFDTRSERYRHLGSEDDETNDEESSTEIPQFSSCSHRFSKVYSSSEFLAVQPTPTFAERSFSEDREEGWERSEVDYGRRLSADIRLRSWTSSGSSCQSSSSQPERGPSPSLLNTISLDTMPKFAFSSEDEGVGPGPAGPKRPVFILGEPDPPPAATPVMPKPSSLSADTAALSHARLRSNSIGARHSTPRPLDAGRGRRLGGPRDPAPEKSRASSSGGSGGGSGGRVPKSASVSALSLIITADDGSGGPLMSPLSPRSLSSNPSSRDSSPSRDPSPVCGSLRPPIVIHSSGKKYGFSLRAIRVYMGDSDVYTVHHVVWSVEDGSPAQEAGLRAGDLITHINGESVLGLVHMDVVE

Binder	Km of phosphorylation of Ser46 by immunoprecipitated MAST3 (32P incorporation, 10-500 nM substrate, 2 min; Figure 1b) [µM]	Km of phosphorylation of Ser46 by immunoprecipitated MAST3 (32P incorporation, 10-500 nM substrate, 2 min; Figure 1—figure supplement 1) [µM]
B1	0.158	–
B2	–	0.138
